Experimental data published in patent publication US20220002423A1 (GENERAL HOSPITAL, published 2022).

Tests used:
[1] = target: T1, Amino acid residues 162-181 of human TNFR2 (human); assay: ELISA, coated linear peptides 1 µg/well
T1 peptide: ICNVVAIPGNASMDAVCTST
Method: (§1) ELISA was also used to determine linear epitopes present on the extracellular surface of TNFR2. Linear peptides corresponding to various regions within the TNFR2 primary sequence were purchased from GenScript (Piscataway, N.J.), diluted in coating buffer and placed on Immulon 4HBX Flat Bottom Microtiter Plates (Thermo Scientific) at a concentration of 1 μg/well. Primary TNFR2 agonistic antibodies (0.1 μg/well) were incubated with substrates. Secondary antibodies against rodent IgG were used to detect the primary antibodies. Absorbance was measured using the SPECTRAMAX® 190 Absorbance Plate Reader and analyzed with SoftMax Pro 6.3 (Molecular Devices).

[2] = target: T2, Amino acid residues 130-149 of human TNFR2 (human); assay: ELISA, coated linear peptides 1 µg/well
T2 peptide: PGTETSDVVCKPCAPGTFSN
Method: as §1

[3] = target: T3, Amino acid residues 154-174 of human TNFR2 (human); assay: ELISA, coated linear peptides 1 µg/well
T3 peptide: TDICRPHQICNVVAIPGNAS
Method: as §1

[4] = target: T4, Amino acid residues 114-133 of human TNFR2 (human); assay: ELISA, coated linear peptides 1 µg/well
T4 peptide: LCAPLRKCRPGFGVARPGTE
Method: as §1

[5] = target: T5, Amino acid residues 138-157 of human TNFR2 (human); assay: ELISA, coated linear peptides 1 µg/well
T5 peptide: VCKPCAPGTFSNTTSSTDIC
Method: as §1

[6] = target: T6, Amino acid residues 146-165 of human TNFR2 (human); assay: ELISA, coated linear peptides 1 µg/well
T6 peptide: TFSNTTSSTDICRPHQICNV
Method: as §1

[7] = target: T7, Amino acid residues 122-141 of human TNFR2 (human); assay: ELISA, coated linear peptides 1 µg/well
T7 peptide: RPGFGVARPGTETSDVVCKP
Method: as §1

[8] = target: T8, Amino acid residues 82-101 of human TNFR2 (human); assay: ELISA, coated linear peptides 1 µg/well
T8 peptide: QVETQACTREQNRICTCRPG
Method: as §1

[9] = target: T9, Amino acid residues 1-20 of human TNFR2 (human); assay: ELISA, coated linear peptides 1 µg/well
T9 construct: 20-mer fragment
T9 peptide: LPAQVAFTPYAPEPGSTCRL
Method: as §1

[10] = target: T10, Amino acid residues 106-125 of human TNFR2 (human); assay: ELISA, antibody alone
T10 sequence (peptide): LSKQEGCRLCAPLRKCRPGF

[11] = target: T11, Amino acid residues 34-53 of human TNFR2 (human); assay: ELISA, antibody alone
T11 sequence (peptide): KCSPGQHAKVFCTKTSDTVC

[12] = target: T12, Amino acid residues 98-117 of human TNFR2 (human); assay: ELISA, antibody alone
T12 sequence (peptide): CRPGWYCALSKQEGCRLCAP

[13] = target: T13, Amino acid residues 26-45 of human TNFR2 (human); assay: ELISA, antibody alone
T13 sequence (peptide): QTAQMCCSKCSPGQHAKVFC

[14] = target: T14, Amino acid residues 42-61 of human TNFR2 (human); assay: ELISA, antibody alone
T14 peptide: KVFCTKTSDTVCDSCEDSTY

[15] = target: T15, Amino acid residues 17-36 of human TNFR2 (human); assay: ELISA, antibody alone
T15 peptide: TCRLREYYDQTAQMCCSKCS

[16] = target: T16, Amino acid residues 170-189 of human TNFR2 (human); assay: ELISA, antibody alone
T16 peptide: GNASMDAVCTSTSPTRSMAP

[17] = target: T17, Amino acid residues 74-93 of human TNFR2 (human); assay: ELISA, antibody alone
T17 peptide: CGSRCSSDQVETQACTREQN

[18] = target: T18, Amino acid residues 50-69 of human TNFR2 (human); assay: ELISA, antibody alone
T18 peptide: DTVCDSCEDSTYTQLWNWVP

[19] = target: T19, Amino acid residues 90-109 of human TNFR2 (human); assay: ELISA, antibody alone
T19 peptide: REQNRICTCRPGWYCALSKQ

[20] = target: T20, Amino acid residues 9-28 of human TNFR2 (human); assay: ELISA, antibody alone
T20 peptide: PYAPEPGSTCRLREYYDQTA

[21] = target: T8, Amino acid residues 82-101 of human …; assay: ELISA, antibody alone
[22] = target: T21, Amino acid residues 66-85 of human TNFR2 (human); assay: ELISA, antibody alone
T21 peptide: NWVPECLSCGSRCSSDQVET

[23] = target: T22, TNFR2, hTNFR2 (23-207), 20kD (human, UniProt P20333); assay: ELISA, antibody alone
T22 construct: fragment 23-207, 20kD (so in the source)
T22 sequence (receptor fragment, looked up): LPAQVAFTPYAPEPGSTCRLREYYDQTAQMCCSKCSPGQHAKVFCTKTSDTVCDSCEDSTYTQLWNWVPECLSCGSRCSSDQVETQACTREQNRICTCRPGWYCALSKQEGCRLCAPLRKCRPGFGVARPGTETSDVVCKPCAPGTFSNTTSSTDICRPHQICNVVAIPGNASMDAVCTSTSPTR

[24] = target: T23, Amino acid residues 58-77 of human TNFR2 (human); assay: ELISA, antibody alone
T23 peptide: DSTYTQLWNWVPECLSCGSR

binding result [1]: no binding (tested: 0.1 µg/well)
binding result [2]: no binding (tested: 0.1 µg/well)
binding result [3]: no binding (tested: 0.1 µg/well)
binding result [4]: no binding (tested: 0.1 µg/well)
binding result [5]: no binding (tested: 0.1 µg/well)
binding result [6]: no binding (tested: 0.1 µg/well)
binding result [7]: no binding (tested: 0.1 µg/well)
binding result [8]: no binding (tested: 0.1 µg/well)
binding result [9]: no binding (tested: 0.1 µg/well)
Reading [10]: 2
Affinity [11]: 1
Affinity [12]: 1
Reading [12]: 2
Affinity [13]: 1
Reading [13]: 0.1
binding result [14]: no binding
binding result [15]: no binding
binding result [16]: no binding
Reading [17]: 2
binding result [18]: no binding
Reading [19]: 2
binding result [20]: no binding
Reading [21]: 2
Reading [22]: 2
Reading [23]: 1.2
binding result [24]: no binding
B1: agonistic TNFR2 antibody TNFRAG1 (antibody, V domains shown)
VH: EVQLQQFGAELVKPGASVKISCKASGYTFTDYNIDWVKQSHGKSLEWIGDINPNYDSTSYSQKFRGKATLTVDKSSSTAYMELRSLTSEDTAVYYCARGNSWYFDVWGAGTTVTVSS
VL: QIVLTQSPALMSASPGEKVTMTCSASSSVRYMYWYQQKPRSSPKPWIYLTSNLASGVPARFSGSGSGTSYSLTISSMEAEDAATYYCQQWSSNPLTFGAGTKLELK
notes: the primary antibodies were detected with secondary antibodies against rodent IgG; also called monoclonal TNFR2 antibody TNFRAG1; TNFR2 agonist antibody
